{
  "source": "patent US20180273587A1",
  "about": "(AILERON THERAPEUTICS, published 2018)",
  "binders": {"B1": {"name": "SEQ ID NO: 1740 (peptide)", "peptide": "Ac-IWIAAALR[R8]IGEAFN[S5]YYA-NH2", "modifications": "staple 9-16", "SMILES": "CC[C@H](C)[C@H](NC(C)=O)C(=O)N[C@@H](Cc1c[nH]c2ccccc12)C(=O)N[C@H](C(=O)N[C@@H](C)C(=O)N[C@@H](C)C(=O)N[C@@H](C)C(=O)N[C@@H](CC(C)C)C(=O)N[C@@H](CCCNC(=N)N)C(=O)N[C@]1(C)CCCCCCC=CCCC[C@@](C)(C(=O)N[C@@H](Cc2ccc(O)cc2)C(=O)N[C@@H](Cc2ccc(O)cc2)C(=O)N[C@@H](C)C(N)=O)NC(=O)[C@H](CC(N)=O)NC(=O)[C@H](Cc2ccccc2)NC(=O)[C@H](C)NC(=O)[C@H](CCC(=O)O)NC(=O)CNC(=O)[C@H]([C@@H](C)CC)NC1=O)[C@@H](C)CC"}, "B2": {"name": "SEQ ID NO: 1741 (peptide)", "peptide": "Ac-IWIAAALR[R8]IGDAGN[S5]YYA-NH2", "modifications": "staple 9-16", "SMILES": "CC[C@H](C)[C@H](NC(C)=O)C(=O)N[C@@H](Cc1c[nH]c2ccccc12)C(=O)N[C@H](C(=O)N[C@@H](C)C(=O)N[C@@H](C)C(=O)N[C@@H](C)C(=O)N[C@@H](CC(C)C)C(=O)N[C@@H](CCCNC(=N)N)C(=O)N[C@]1(C)CCCCCCC=CCCC[C@@](C)(C(=O)N[C@@H](Cc2ccc(O)cc2)C(=O)N[C@@H](Cc2ccc(O)cc2)C(=O)N[C@@H](C)C(N)=O)NC(=O)[C@H](CC(N)=O)NC(=O)CNC(=O)[C@H](C)NC(=O)[C@H](CC(=O)O)NC(=O)CNC(=O)[C@H]([C@@H](C)CC)NC1=O)[C@@H](C)CC"}, "B3": {"name": "SEQ ID NO: 1737 (peptide)", "peptide": "Ac-IWIAAALK[R8]IGDAFN[S5]YYA-NH2", "modifications": "staple 9-16", "SMILES": "CC[C@H](C)[C@H](NC(C)=O)C(=O)N[C@@H](Cc1c[nH]c2ccccc12)C(=O)N[C@H](C(=O)N[C@@H](C)C(=O)N[C@@H](C)C(=O)N[C@@H](C)C(=O)N[C@@H](CC(C)C)C(=O)N[C@@H](CCCCN)C(=O)N[C@]1(C)CCCCCCC=CCCC[C@@](C)(C(=O)N[C@@H](Cc2ccc(O)cc2)C(=O)N[C@@H](Cc2ccc(O)cc2)C(=O)N[C@@H](C)C(N)=O)NC(=O)[C@H](CC(N)=O)NC(=O)[C@H](Cc2ccccc2)NC(=O)[C@H](C)NC(=O)[C@H](CC(=O)O)NC(=O)CNC(=O)[C@H]([C@@H](C)CC)NC1=O)[C@@H](C)CC"}, "B4": {"name": "SEQ ID NO: 1739 (peptide)", "peptide": "Ac-IWIAAALR[R8]IVDAFN[S5]YYA-NH2", "modifications": "staple 9-16", "SMILES": "CC[C@H](C)[C@H](NC(C)=O)C(=O)N[C@@H](Cc1c[nH]c2ccccc12)C(=O)N[C@H](C(=O)N[C@@H](C)C(=O)N[C@@H](C)C(=O)N[C@@H](C)C(=O)N[C@@H](CC(C)C)C(=O)N[C@@H](CCCNC(=N)N)C(=O)N[C@]1(C)CCCCCCC=CCCC[C@@](C)(C(=O)N[C@@H](Cc2ccc(O)cc2)C(=O)N[C@@H](Cc2ccc(O)cc2)C(=O)N[C@@H](C)C(N)=O)NC(=O)[C@H](CC(N)=O)NC(=O)[C@H](Cc2ccccc2)NC(=O)[C@H](C)NC(=O)[C@H](CC(=O)O)NC(=O)[C@H](C(C)C)NC(=O)[C@H]([C@@H](C)CC)NC1=O)[C@@H](C)CC"}, "B5": {"name": "SEQ ID NO: 1738 (peptide)", "peptide": "Ac-IWIAAALR[R8]I[Abu]DAFN[S5]YYA-NH2", "modifications": "staple 9-16", "SMILES": "CC[C@@H]1NC(=O)[C@H]([C@@H](C)CC)NC(=O)[C@](C)(NC(=O)[C@H](CCCNC(=N)N)NC(=O)[C@H](CC(C)C)NC(=O)[C@H](C)NC(=O)[C@H](C)NC(=O)[C@H](C)NC(=O)[C@@H](NC(=O)[C@H](Cc2c[nH]c3ccccc23)NC(=O)[C@@H](NC(C)=O)[C@@H](C)CC)[C@@H](C)CC)CCCCCCC=CCCC[C@@](C)(C(=O)N[C@@H](Cc2ccc(O)cc2)C(=O)N[C@@H](Cc2ccc(O)cc2)C(=O)N[C@@H](C)C(N)=O)NC(=O)[C@H](CC(N)=O)NC(=O)[C@H](Cc2ccccc2)NC(=O)[C@H](C)NC(=O)[C@H](CC(=O)O)NC1=O"}},
  "experiment_in_all_cases": "Ki; method not stated; unit not printed (nM per Table 6)",
  "key": {"BCL-2": {"molecular_target": "T1, BCL-2 (UniProt P10415 1-217, limits assumed)", "T1 construct": "Target of the Ki columns", "T1 sequence (P10415 1-217 limits assumed)": "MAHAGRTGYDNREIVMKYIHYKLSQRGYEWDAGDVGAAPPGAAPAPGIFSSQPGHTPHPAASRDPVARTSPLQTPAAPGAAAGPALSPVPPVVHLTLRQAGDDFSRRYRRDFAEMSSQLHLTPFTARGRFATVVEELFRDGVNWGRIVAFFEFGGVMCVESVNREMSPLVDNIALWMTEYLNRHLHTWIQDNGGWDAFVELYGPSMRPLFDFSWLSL"}, "MCL-1": {"molecular_target": "T2, MCL-1 (UniProt Q07820 172-327, limits assumed)", "T2 construct": "Target of the Ki columns; also called Myeloid cell leukemia 1", "T2 sequence (Q07820 172-327 limits assumed)": "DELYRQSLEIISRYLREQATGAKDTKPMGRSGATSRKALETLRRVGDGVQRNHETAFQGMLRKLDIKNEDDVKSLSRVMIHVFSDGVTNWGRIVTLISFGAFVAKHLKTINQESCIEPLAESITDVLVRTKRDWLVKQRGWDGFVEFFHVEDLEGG"}, "BCL-XL": {"molecular_target": "T3, BCL-XL (UniProt Q07817 1-209)", "T3 construct": "Target of the Ki columns", "T3 sequence (Q07817 1-209)": "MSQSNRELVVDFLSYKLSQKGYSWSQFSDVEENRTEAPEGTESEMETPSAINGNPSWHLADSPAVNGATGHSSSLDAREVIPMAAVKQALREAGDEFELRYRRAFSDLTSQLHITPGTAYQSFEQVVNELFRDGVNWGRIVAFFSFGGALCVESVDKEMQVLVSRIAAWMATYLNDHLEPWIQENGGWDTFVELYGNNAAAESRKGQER"}},
  "note": "Positions of bridges follow the written chain, without caps; N, C: chain ends. Non-standard residues stand in square brackets, D forms with d. R8 = C=CCCCCCC[C@@](C)(N)C(=O)O; S5 = C=CCCC[C@](C)(N)C(=O)O; Abu = CC[C@H](N)C(=O)O",
  "data": [
    {"binder": "B1", "values": [
      {"measurement": "Ki", "setting": "BCL-2", "result": 142, "unit": "nM"},
      {"measurement": "Ki", "setting": "MCL-1", "result": 63.6, "unit": "nM"},
      {"measurement": "Ki", "setting": "BCL-XL", "result": 135, "unit": "nM"}
    ]},
    {"binder": "B2", "values": [
      {"measurement": "Ki", "setting": "BCL-2", "result": 145, "unit": "nM"},
      {"measurement": "Ki", "setting": "MCL-1", "result": 29.7, "unit": "nM"},
      {"measurement": "Ki", "setting": "BCL-XL", "result": 171, "unit": "nM"}
    ]},
    {"binder": "B3", "values": [
      {"measurement": "Ki", "setting": "BCL-2", "result": 25.6, "unit": "nM"},
      {"measurement": "Ki", "setting": "MCL-1", "result": 23.2, "unit": "nM"},
      {"measurement": "Ki", "setting": "BCL-XL", "result": 11.7, "unit": "nM"}
    ]},
    {"binder": "B4", "values": [
      {"measurement": "Ki", "setting": "BCL-2", "result": 120, "unit": "nM"},
      {"measurement": "Ki", "setting": "MCL-1", "result": 104, "unit": "nM"},
      {"measurement": "Ki", "setting": "BCL-XL", "result": 140, "unit": "nM"}
    ]},
    {"binder": "B5", "values": [
      {"measurement": "Ki", "setting": "BCL-2", "result": 131, "unit": "nM"},
      {"measurement": "Ki", "setting": "MCL-1", "result": 106, "unit": "nM"},
      {"measurement": "Ki", "setting": "BCL-XL", "result": 112, "unit": "nM"}
    ]}
  ]
}
